From paper PMC9482650, “Quantitative fragmentomics allow affinity mapping of interactomes” (Nature Communications, 2022)

B1: TMEM225B, P0DP42 (peptide)
chain: ETQVTAETVI

Each binder was assayed against GORASP2, Q9H8Y8 (assay: holdup assay). Conditions: plain residues with an end cap or a label only (N-terminal biotin on a linker: ado-ado).
Design: key: below the threshold = too weak to quantify, mostly under pKd 3.1 to 4

Binder	pKd
B1	3.57

These binders were tested against Inadl_9, Q8NI35 (assay: holdup assay). Conditions: plain residues with an end cap or a label only (N-terminal biotin on a linker: ado-ado).
Chain of Inadl_9, Q8NI35 (Q8NI35 1530-1615): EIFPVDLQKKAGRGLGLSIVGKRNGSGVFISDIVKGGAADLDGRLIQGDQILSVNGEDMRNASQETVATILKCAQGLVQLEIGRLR
Design: key: below the threshold = too weak to quantify, mostly under pKd 3.1 to 4

Binder	pKd
B1	below the threshold

These binders were tested against T1, LIN7B, Q9HAP6 (assay: holdup assay). Conditions: plain residues with an end cap or a label only (N-terminal biotin on a linker: ado-ado).
T1 sequence (Q9HAP6 88-185, limits assumed, looked up): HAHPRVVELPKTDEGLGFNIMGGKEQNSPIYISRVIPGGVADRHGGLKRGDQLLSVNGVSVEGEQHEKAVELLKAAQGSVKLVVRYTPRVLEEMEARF
Design: key: below the threshold = too weak to quantify, mostly under pKd 3.1 to 4

Binder	pKd
B1	below the threshold

What follows are binders tested against LAP2, Q96RT1 (assay: holdup assay). Conditions: plain residues with an end cap or a label only (N-terminal biotin on a linker: ado-ado).
Chain of LAP2, Q96RT1 (Q96RT1 other isoform, or with tags, fused parts or gaps): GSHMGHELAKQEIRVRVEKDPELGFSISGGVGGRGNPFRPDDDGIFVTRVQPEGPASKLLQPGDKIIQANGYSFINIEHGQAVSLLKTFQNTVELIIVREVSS
Design: key: below the threshold = too weak to quantify, mostly under pKd 3.1 to 4

Binder	pKd
B1	below the threshold

What follows are binders tested against TJP2_1, Q9UDY2 (assay: holdup assay). Conditions: plain residues with an end cap or a label only (N-terminal biotin on a linker: ado-ado).
Chain of TJP2_1, Q9UDY2 (Q9UDY2 24-128): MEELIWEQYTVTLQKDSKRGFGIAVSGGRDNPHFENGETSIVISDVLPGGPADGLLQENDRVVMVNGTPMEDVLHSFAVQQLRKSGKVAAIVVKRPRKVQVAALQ
Design: key: below the threshold = too weak to quantify, mostly under pKd 3.1 to 4

Binder	pKd
B1	below the threshold

Each binder was assayed against HTRA1, Q92743 (assay: holdup assay). Conditions: plain residues with an end cap or a label only (N-terminal biotin on a linker: ado-ado).
Chain of HTRA1, Q92743 (Q92743 360-477): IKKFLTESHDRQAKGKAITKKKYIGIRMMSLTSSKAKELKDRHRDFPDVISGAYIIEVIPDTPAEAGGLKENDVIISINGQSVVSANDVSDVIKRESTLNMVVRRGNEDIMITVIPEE
Design: key: below the threshold = too weak to quantify, mostly under pKd 3.1 to 4

Binder	pKd
B1	4.31

These binders were tested against T2, SYNJ2BP, P57105 (assay: holdup assay). Conditions: plain residues with an end cap or a label only (N-terminal biotin on a linker: ado-ado).
T2 sequence (P57105 8-110, limits assumed, looked up): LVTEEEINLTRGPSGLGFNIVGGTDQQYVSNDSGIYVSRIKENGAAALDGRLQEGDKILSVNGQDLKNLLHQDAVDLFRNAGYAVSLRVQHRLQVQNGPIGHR
Design: key: below the threshold = too weak to quantify, mostly under pKd 3.1 to 4

Binder	pKd
B1	3.92

Each binder was assayed against IL16_1, Q14005 (assay: holdup assay). Conditions: plain residues with an end cap or a label only (N-terminal biotin on a linker: ado-ado).
Chain of IL16_1, Q14005 (Q14005 210-306): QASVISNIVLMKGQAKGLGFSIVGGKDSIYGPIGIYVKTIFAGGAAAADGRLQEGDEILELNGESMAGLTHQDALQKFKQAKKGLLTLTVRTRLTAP
Design: key: below the threshold = too weak to quantify, mostly under pKd 3.1 to 4

Binder	pKd
B1	below the threshold

These binders were tested against T3, PARD3B_1, Q8TEW8 (assay: holdup assay). Conditions: plain residues with an end cap or a label only (N-terminal biotin on a linker: ado-ado).
T3 sequence (Q8TEW8 196-299, limits assumed, looked up): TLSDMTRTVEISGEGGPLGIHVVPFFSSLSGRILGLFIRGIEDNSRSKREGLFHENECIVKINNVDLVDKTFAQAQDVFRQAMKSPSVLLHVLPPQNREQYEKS
Design: key: below the threshold = too weak to quantify, mostly under pKd 3.1 to 4

Binder	pKd
B1	4.18

The binders below were run against Inadl_10, Q8NI35 (assay: holdup assay). Conditions: plain residues with an end cap or a label only (N-terminal biotin on a linker: ado-ado).
Chain of Inadl_10, Q8NI35 (Q8NI35 1673-1763): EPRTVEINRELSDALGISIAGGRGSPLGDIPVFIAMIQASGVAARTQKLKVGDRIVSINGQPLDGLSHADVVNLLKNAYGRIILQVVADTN
Design: key: below the threshold = too weak to quantify, mostly under pKd 3.1 to 4

Binder	pKd
B1	below the threshold

What follows are binders tested against T4, DFNB31_1, Q9P202 (assay: holdup assay). Conditions: plain residues with an end cap or a label only (N-terminal biotin on a linker: ado-ado).
T4 sequence (Q9P202 135-233, limits assumed, looked up): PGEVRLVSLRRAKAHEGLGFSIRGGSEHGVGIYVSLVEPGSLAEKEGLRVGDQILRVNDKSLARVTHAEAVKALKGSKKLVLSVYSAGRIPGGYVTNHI
Design: key: below the threshold = too weak to quantify, mostly under pKd 3.1 to 4

Binder	pKd
B1	4.59

The binders below were run against NHERF4_4, Q86UT5 (assay: holdup assay). Conditions: plain residues with an end cap or a label only (N-terminal biotin on a linker: ado-ado).
Chain of NHERF4_4, Q86UT5 (Q86UT5 464-550): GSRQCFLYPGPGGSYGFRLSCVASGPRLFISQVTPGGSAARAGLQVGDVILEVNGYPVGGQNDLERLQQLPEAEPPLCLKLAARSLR
Design: key: below the threshold = too weak to quantify, mostly under pKd 3.1 to 4

Binder	pKd
B1	below the threshold

These binders were tested against T5, HTRA3, P83110 (assay: holdup assay). Conditions: plain residues with an end cap or a label only (N-terminal biotin on a linker: ado-ado).
T5 sequence (P83110 354-453, limits assumed, looked up): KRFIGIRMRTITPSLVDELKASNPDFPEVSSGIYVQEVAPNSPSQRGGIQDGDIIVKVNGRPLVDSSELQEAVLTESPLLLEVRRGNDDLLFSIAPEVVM
Design: key: below the threshold = too weak to quantify, mostly under pKd 3.1 to 4

Binder	pKd
B1	below the threshold

These binders were tested against T6, DLG3_2, Q92796 (assay: holdup assay). Conditions: plain residues with an end cap or a label only (N-terminal biotin on a linker: ado-ado).
T6 sequence (Q92796 221-321, limits assumed, looked up): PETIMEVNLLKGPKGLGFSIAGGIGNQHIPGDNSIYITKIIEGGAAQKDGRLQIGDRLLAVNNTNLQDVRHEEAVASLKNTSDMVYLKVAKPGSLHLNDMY
Design: key: below the threshold = too weak to quantify, mostly under pKd 3.1 to 4

Binder	pKd
B1	4.43

These binders were tested against T7, DLG3_1, Q92796 (assay: holdup assay). Conditions: plain residues with an end cap or a label only (N-terminal biotin on a linker: ado-ado).
T7 sequence (Q92796 125-227, limits assumed, looked up): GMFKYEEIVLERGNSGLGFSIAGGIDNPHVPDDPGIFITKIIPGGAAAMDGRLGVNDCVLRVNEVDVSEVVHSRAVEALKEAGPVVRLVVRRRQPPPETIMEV
Design: key: below the threshold = too weak to quantify, mostly under pKd 3.1 to 4

Binder	pKd
B1	below the threshold

Each binder was assayed against T8, GRIP1_4, Q9Y3R0 (assay: holdup assay). Conditions: plain residues with an end cap or a label only (N-terminal biotin on a linker: ado-ado).
T8 sequence (Q9Y3R0 467-571, limits assumed, looked up): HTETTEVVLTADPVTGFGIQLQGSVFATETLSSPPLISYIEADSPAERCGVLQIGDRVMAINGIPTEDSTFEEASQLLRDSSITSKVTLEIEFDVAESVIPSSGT
Design: key: below the threshold = too weak to quantify, mostly under pKd 3.1 to 4

Binder	pKd
B1	below the threshold

Each binder was assayed against Inadl_5, Q8NI35 (assay: holdup assay). Conditions: plain residues with an end cap or a label only (N-terminal biotin on a linker: ado-ado).
Chain of Inadl_5, Q8NI35 (Q8NI35 673-780): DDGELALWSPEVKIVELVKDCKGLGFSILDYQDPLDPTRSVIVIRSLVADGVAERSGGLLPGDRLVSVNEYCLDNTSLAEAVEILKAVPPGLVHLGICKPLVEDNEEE
Design: key: below the threshold = too weak to quantify, mostly under pKd 3.1 to 4

Binder	pKd
B1	below the threshold

These binders were tested against T9, RHPN1, Q8TCX5 (assay: holdup assay). Conditions: plain residues with an end cap or a label only (N-terminal biotin on a linker: ado-ado).
T9 sequence (Q8TCX5 508-602, limits assumed, looked up): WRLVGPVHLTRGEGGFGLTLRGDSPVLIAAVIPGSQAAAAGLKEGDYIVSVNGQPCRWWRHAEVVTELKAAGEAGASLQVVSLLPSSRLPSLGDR
Design: key: below the threshold = too weak to quantify, mostly under pKd 3.1 to 4

Binder	pKd
B1	4.44

These binders were tested against T10, PTPN13_1, Q12923 (assay: holdup assay). Conditions: plain residues with an end cap or a label only (N-terminal biotin on a linker: ado-ado).
T10 sequence (Q12923 1088-1188, limits assumed, looked up): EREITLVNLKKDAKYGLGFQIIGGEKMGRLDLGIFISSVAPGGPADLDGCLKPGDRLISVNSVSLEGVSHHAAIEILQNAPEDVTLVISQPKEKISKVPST
Design: key: below the threshold = too weak to quantify, mostly under pKd 3.1 to 4

Binder	pKd
B1	below the threshold

These binders were tested against NOS1, P29475 (assay: holdup assay). Conditions: plain residues with an end cap or a label only (N-terminal biotin on a linker: ado-ado).
Chain of NOS1, P29475 (P29475 9-101): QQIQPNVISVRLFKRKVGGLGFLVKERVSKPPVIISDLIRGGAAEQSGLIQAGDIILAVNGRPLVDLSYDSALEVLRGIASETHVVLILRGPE
Design: key: below the threshold = too weak to quantify, mostly under pKd 3.1 to 4

Binder	pKd
B1	3.53

Each binder was assayed against TJP1_3, Q07157 (assay: holdup assay). Conditions: plain residues with an end cap or a label only (N-terminal biotin on a linker: ado-ado).
Chain of TJP1_3, Q07157 (Q07157 416-512): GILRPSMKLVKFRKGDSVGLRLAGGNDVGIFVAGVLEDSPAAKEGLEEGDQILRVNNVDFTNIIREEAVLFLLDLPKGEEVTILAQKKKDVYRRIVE
Design: key: below the threshold = too weak to quantify, mostly under pKd 3.1 to 4

Binder	pKd
B1	below the threshold

The binders below were run against T11, GRIP1_2, Q9Y3R0 (assay: holdup assay). Conditions: plain residues with an end cap or a label only (N-terminal biotin on a linker: ado-ado).
T11 sequence (Q9Y3R0 145-248, limits assumed, looked up): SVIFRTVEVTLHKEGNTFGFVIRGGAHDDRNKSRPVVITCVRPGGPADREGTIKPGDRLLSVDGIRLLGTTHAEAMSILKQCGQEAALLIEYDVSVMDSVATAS
Design: key: below the threshold = too weak to quantify, mostly under pKd 3.1 to 4

Binder	pKd
B1	below the threshold

What follows are binders tested against T12, MPDZ_10, O75970 (assay: holdup assay). Conditions: plain residues with an end cap or a label only (N-terminal biotin on a linker: ado-ado).
T12 sequence (O75970 1624-1722, limits assumed, looked up): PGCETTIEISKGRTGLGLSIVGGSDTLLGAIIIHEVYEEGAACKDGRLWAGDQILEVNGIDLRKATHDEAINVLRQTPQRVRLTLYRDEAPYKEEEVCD
Design: key: below the threshold = too weak to quantify, mostly under pKd 3.1 to 4

Binder	pKd
B1	below the threshold

Each binder was assayed against DLG1_3, Q12959 (assay: holdup assay). Conditions: plain residues with an end cap or a label only (N-terminal biotin on a linker: ado-ado).
Chain of DLG1_3, Q12959 (Q12959 457-571): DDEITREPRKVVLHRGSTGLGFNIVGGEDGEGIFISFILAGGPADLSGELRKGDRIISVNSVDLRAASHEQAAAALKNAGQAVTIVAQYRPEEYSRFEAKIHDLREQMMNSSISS
Design: key: below the threshold = too weak to quantify, mostly under pKd 3.1 to 4

Binder	pKd
B1	below the threshold

Each binder was assayed against DLG4_1, P78352 (assay: holdup assay). Conditions: plain residues with an end cap or a label only (N-terminal biotin on a linker: ado-ado).
Chain of DLG4_1, P78352 (P78352 62-152): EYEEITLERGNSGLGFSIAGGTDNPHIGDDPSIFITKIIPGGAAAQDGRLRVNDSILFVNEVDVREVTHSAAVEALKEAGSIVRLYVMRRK
Design: key: below the threshold = too weak to quantify, mostly under pKd 3.1 to 4

Binder	pKd
B1	3.6
